Numbering of substitutions follows the chain as printed.
B1: DOPA-RS2 (protein)
chain: MDEFEMIKRNTSEIISEEELREVLEKDEKSALIGFEPSGKIHLGHYLQIKKMIDLQNAGFDIIILLSDLNAYLNQKGELDEIRKIGDYNKKVFEAMGLKAKYVYGSEFQLDKDYTLNVYRLALKTTLKRARRSMELIAREDENPKVAEVIYPIMQVNDIHYLGVDVLVGGMEQRKIHMLARELLPKKVVCIHNPVLTGLDGEGKMSSSKGNFIAVDDSPEEIRAKIKKAYCPAGVVEGNPIMEIAKYFLEYPLTIKRPEKFGGDLTVNSYEELESLFKNKELHPMDLKNAVAEELIKILEPIRKRL
modifications: Artificial DOPA_RS-2 Sequence
B2: DOPA-RS1 (protein)
chain: B1 chain with L167N
modifications: Artificial DOPA_RS-1 Sequence

Tests used:
Format in all cases: cell-based, E. coli
bacterial cell growth = assay: Bacterial cell growth / cell density in growth medium
Experimental: The starter culture (2 mL) was transferred to a limiting medium (100 mL) (50 mM Na2HPO4, 50 mM KH2PO4, 50 mM (NH4)2504, 2 mM MgSO4, 0.1% trace metals, 0.5% glycerol, 0.05% glucose, and 5% amino acids, and pH 7.25) supplemented with ampicillin (100 μg/mL), chloramphenicol (35 μg/mL), 100 μM pyruvate, 10 mM catechol, and 300 μM DTT at 30° C. Protein expression was induced by adding 0.2% L-arabinose when the optical density reached 0.8, and the culture was cultured overnight at 30° C.
A simple solution was to maximize the concentrations of catechol, pyruvate, and ammonia in a growth medium. […] In the growth medium, 50 mM pyruvate and 25 mM ammonia were added as starting materials together with various concentrations (0 mM to 10 mM) catechol.

[1] = system: emGFP containing an amber mutation (TAG) at position 39 or 90; assay: emGFP fluorescence from cytolysate, efficiency of genetic incorporation of L-DOPA; conditions: all L-DOPA concentrations (1 mM to 3 mM), positions 39 and 90 of emGFP
Excerpt: (§1) A wild-type emGFP gene was obtained from commercially available sources by gene synthesis, amplified by PCR, and inserted between the BspHI and KpnI sites of pBAD/Myc-His (Invitrogen) to generate pBAD-emGFP (SEQ ID NO: 10). An amber codon (TAG) was incorporated at position 39 or 90 in the emGFP by site-specific mutants. A plasmid containing each amber codon was incorporated into E. coli DH10 used as a prokaryote host cell with pEvol-DOPA-RS1 (SEQ ID NO: 6), pEvol-DOPA-RS2 (SEQ ID NO: 7), or pEvol-DOPA-RS (SEQ ID NO: 8) to co-transform the E. coli DH10 (Comparative Example 1: […], Example 1: DOPA-RS1, Example 2: DOPA-RS2). Cells were amplified in an LB medium (lysogeny broth) supplemented with ampicillin (100 μg/mL) and chloramphenicol (35 μg/mL). […] Protein concentrations were calculated by measuring absorbance at 280 nm and using the calculated extinction coefficient (2.2×10^4 cm^−1M^−1 for emGFP).
Cells (2×10^9) were harvested by centrifugation at 10,000 rpm and 4° C. for 5 minutes, and cell pellets were lysed for 1 hour with Bugbuster (Novagen) (50 μL) supplemented with benzonase (Sigma) ([…]). The cytolysate was removed by centrifugation at 13,000 rpm and 4° C. for 10 minutes, and the supernatant was directly used for fluorescence measurement. Fluorescence was measured at 510 nm with excitation at 487 nm. […]

emGFP-E90DOPA = assay: MALDI-TOF MS analysis of tryptic digest of emGFP-E90DOPA, specificity of incorporation; conditions: 3 mM L-DOPA, position 90
Excerpt: as §1, with “Protein expression was induced by adding 0.2% L-arabinose when the optical density reached 0.8, and the culture was cultured overnight at 37° C. […] Protein” for “Protein”, “emGFP). […]” for “emGFP).”
In order to express an emGFP-E90DOPA mutant, the expressed protein was purified, followed by tryptic degradation and then evaluated by MALDI-TOF (matrix-assisted laser desorption/ionization-time of flight) MS analysis (FIG. 2). […]

Molecule | toxicity (bacterial cell growth; 10 mM catechol) | concentration that inhibited bacterial cell growth (bacterial cell growth; preliminary test, growth medium) | efficiency in incorporation of L-DOPA (emGFP expression), rank order [1] | incorporation of tyrosine (emGFP-E90DOPA)
Oc1ccccc1O [catechol] | a reasonable toxicity was observed | more than 8 mM |  | 
B1 |  |  | DOPA-RS2>DOPA-RS1>DOPA-RS | not detected
B2 |  |  | DOPA-RS2>DOPA-RS1>DOPA-RS | not detected

Reference: patent US11220682B2 (SOGANG UNIVERSITY RESEARCH & BUSINESS DEVELOPMENT FOUNDATION, priority 2017, dated 2022)
